The results in this text go back to patent US20230114801A1 (SYSTIMMUNE, published 2023).

In one test the target is T1, human HER3 (human, UniProt P21860 20-643).
T1 construct: Soluble antigen in Octet; bought; also called human HER3 (Acro ER3-H5223)
The experiment in a line: BLI (Octet), binder on AHC sensor, 200 nM human HER3, 1:1 fit.

The next test addresses T2, human CD3 (human, UniProt P07766 23-126; P04234 22-105).
T2 construct: also called His-tagged human CD3; human CD3 (Acro CDD-H52W1)
Put plainly: BLI (Octet), binder on AHC sensor, 100 nM human CD3, 1:1 fit.

The next test concerns the target T3, human EGFR (human, UniProt P00533 25-645, limits assumed).
T3 construct: Soluble antigen in Octet; construct not described
Put plainly: BLI (Octet), binder on AHC sensor, 200 nM human EGFR, 1:1 fit.

B1: SI-75X4 (other)
chain 1: EVQLQESGGGLVQAGDSLSLSCLVSGRSFNSYTMGWFRQAPGKEREFVAAILWSGPTTYYADSVKGRFTISRDNAKNTVYLQMNSLKPEDTAVYYCAAALGVLVLAPGNVYSYWGQGTQVTVSSGGGGSGGGGSEVQLVESGGGLVQPGGSLRLSCAASGFTISTNAMSWVRQAPGKGLEWIGVITGRDITYYASWAKGRFTISRDNSKNTLYLQMSSLRSEDTAVYYCARDGGSSAITSNNIWGQGTLVTVSSASTKGPSVFPLAPSSKSTSGGTAALGCLVKDYFPEPVTVSWNSGALTSGVHTFPAVLQSSGLYSLSSVVTVPSSSLGTQTYICNVNHKPSNTKVDKRVEPKSCDKTHTCPPCPAPEAAGGPSVFLFPPKPKDTLMISRTPEVTCVVVDVSHEDPEVKFNWYVDGVEVHNAKTKPREEQYNSTYRVVSVLTVLHQDWLNGKEYKCAVSNKALPAPIEKTISKAKGQPREPQVYTLPPSRDELTKNQVSLSCAVKGFYPSDIAVEWESNGQPENNYKTTPPVLDSDGSFFLVSKLTVDKSRWQQGNVFSCSVMHEALHNHYTQKSLSLSPG
chain 2: QVQLVQSGGGLVQAGGSLSLSCAFSGRTFSMYTMGWFRQAPGKEREFVAANRGRGLSPDIADSVNGRFTISRDNAKNTLYLQMDSLKPEDTAVYYCAADLQYGSSWPQRSSAEYDYWGQGTTVTVSSGGGGSGGGGSDVVMTQSPSTLSASVGDRVTINCQASESISSWLAWYQQKPGKAPKLLIYEASKLASGVPSRFSGSGSGTEFTLTISSLQPDDFATYYCQGYFYFISRTYVNSFGGGTKVEIKRTVAAPSVFIFPPSDEQLKSGTASVVCLLNNFYPREAKVQWKVDNALQSGNSQESVTEQDSKDSTYSLSSTLTLSKADYEKHKVYACEVTHQGLSSPVTKSFNRGECGGDKTHTCPPCPAPEAAGGPSVFLFPPKPKDTLMISRTPEVTCVVVDVSHEDPEVKFNWYVDGVEVHNAKTKPREEQYNSTYRVVSVLTVLHQDWLNGKEYKCAVSNKALPAPIEKTISKAKGQPREPQVYTLPPSRDELTKNQVSLWCLVKGFYPSDIAVEWESNGQPENNYKTTPPVLDSDGSFFLYSKLTVDKSRWQQGNVFSCSVMHEALHNRFTQKSLSLSPG
notes: tri-miniGNC; D1 αEGFR VHH, D2 αHER3 VHH, D3 αCD3 (Fab)
With B1, the Kd with human HER3 stood at 7.68 nM; with human CD3, 26.3 nM; with human EGFR, 51.5 nM.

B2: SI-75X19 (other)
chain 1: QVQLQESGGRLVQPGEPLSLTCKTSGIDLSSNAIGWVRQAPGKGLEWIGVIFGSGNTYYASWAKGRFTISRSTSTVYLKMNSLRSEDTAIYYCARGGYSSDIWGQGTLVTVSSASTKGPSVFPLAPSSKSTSGGTAALGCLVKDYFPEPVTVSWNSGALTSGVHTFPAVLQSSGLYSLSSVVTVPSSSLGTQTYICNVNHKPSNTKVDKRVEPKSCDKTHTCPPCPAPEAAGGPSVFLFPPKPKDTLMISRTPEVTCVVVDVSHEDPEVKFNWYVDGVEVHNAKTKPREEQYNSTYRVVSVLTVLHQDWLNGKEYKCAVSNKALPAPIEKTISKAKGQPREPQVYTLPPSRDELTKNQVSLSCAVKGFYPSDIAVEWESNGQPENNYKTTPPVLDSDGSFFLVSKLTVDKSRWQQGNVFSCSVMHEALHNHYTQKSLSLSPGGGGGSGGGGSEVQLQESGGGLVQAGDSLSLSCLVSGRSFNSYTMGWFRQAPGKEREFVAAILWSGPTTYYADSVKGRFTISRDNAKNTVYLQMNSLKPEDTAVYYCAAALGVLVLAPGNVYSYWGQGTQVTVSS
chain 2: DPQLTQSPSSLSATVGQRVTINCQSSQSVAKNNNLAWFQQKPGKPPKLLIYSASTLAAGVPSRFSGSGSGTQFTLTITRVQSEDFATYYCSARDSGNIQSFGGGTRVEIKRTVAAPSVFIFPPSDEQLKSGTASVVCLLNNFYPREAKVQWKVDNALQSGNSQESVTEQDSKDSTYSLSSTLTLSKADYEKHKVYACEVTHQGLSSPVTKSFNRGECGGDKTHTCPPCPAPEAAGGPSVFLFPPKPKDTLMISRTPEVTCVVVDVSHEDPEVKFNWYVDGVEVHNAKTKPREEQYNSTYRVVSVLTVLHQDWLNGKEYKCAVSNKALPAPIEKTISKAKGQPREPQVYTLPPSRDELTKNQVSLWCLVKGFYPSDIAVEWESNGQPENNYKTTPPVLDSDGSFFLYSKLTVDKSRWQQGNVFSCSVMHEALHNRFTQKSLSLSPGGGGGSGGGGSQVQLVQSGGGLVQAGGSLSLSCAFSGRTFSMYTMGWFRQAPGKEREFVAANRGRGLSPDIADSVNGRFTISRDNAKNTLYLQMDSLKPEDTAVYYCAADLQYGSSWPQRSSAEYDYWGQGTTVTVSS
notes: tri-miniGNC; D3 αCD3* (Fab), D4 αEGFR VHH, D5 αHER3 VHH
Take B2: the results for the Kd with human HER3, with human CD3 and in the test with human EGFR were 10.5 nM, 64.4 nM and 20.6 nM, respectively.

B3: SI-75X15 (bispecific antibody, human IgG1, kappa, L234A L235A)
chain 1: QVQLQESGGRLVQPGEPLSLTCKTSGIDLSSNAIGWVRQAPGKGLEWIGVIFGSGNTYYASWAKGRFTISRSTSTVYLKMNSLRSEDTAIYYCARGGYSSDIWGQGTLVTVSSASTKGPSVFPLAPSSKSTSGGTAALGCLVKDYFPEPVTVSWNSGALTSGVHTFPAVLQSSGLYSLSSVVTVPSSSLGTQTYICNVNHKPSNTKVDKRVEPKSCDKTHTCPPCPAPEAAGGPSVFLFPPKPKDTLMISRTPEVTCVVVDVSHEDPEVKFNWYVDGVEVHNAKTKPREEQYNSTYRVVSVLTVLHQDWLNGKEYKCAVSNKALPAPIEKTISKAKGQPREPQVYTLPPSRDELTKNQVSLSCAVKGFYPSDIAVEWESNGQPENNYKTTPPVLDSDGSFFLVSKLTVDKSRWQQGNVFSCSVMHEALHNHYTQKSLSLSPG
chain 2: DPQLTQSPSSLSATVGQRVTINCQSSQSVAKNNNLAWFQQKPGKPPKLLIYSASTLAAGVPSRFSGSGSGTQFTLTITRVQSEDFATYYCSARDSGNIQSFGGGTRVEIKRTVAAPSVFIFPPSDEQLKSGTASVVCLLNNFYPREAKVQWKVDNALQSGNSQESVTEQDSKDSTYSLSSTLTLSKADYEKHKVYACEVTHQGLSSPVTKSFNRGECGGDKTHTCPPCPAPEAAGGPSVFLFPPKPKDTLMISRTPEVTCVVVDVSHEDPEVKFNWYVDGVEVHNAKTKPREEQYNSTYRVVSVLTVLHQDWLNGKEYKCAVSNKALPAPIEKTISKAKGQPREPQVYTLPPSRDELTKNQVSLWCLVKGFYPSDIAVEWESNGQPENNYKTTPPVLDSDGSFFLYSKLTVDKSRWQQGNVFSCSVMHEALHNRFTQKSLSLSPGGGGGSGGGGSQVQLVQSGGGLVQAGGSLSLSCAFSGRTFSMYTMGWFRQAPGKEREFVAANRGRGLSPDIADSVNGRFTISRDNAKNTLYLQMDSLKPEDTAVYYCAADLQYGSSWPQRSSAEYDYWGQGTTVTVSS
notes: bi-miniGNC; D3 αCD3* (Fab), D5 αHER3 VHH
For B3, the Kd turned out to be 13.7 nM with human HER3 and 38.1 nM with human CD3.

B4: SI-75X17 (other)
chain 1: EVQLQESGGGLVQAGDSLSLSCLVSGRSFNSYTMGWFRQAPGKEREFVAAILWSGPTTYYADSVKGRFTISRDNAKNTVYLQMNSLKPEDTAVYYCAAALGVLVLAPGNVYSYWGQGTQVTVSSGGGGSGGGGSQVQLQESGGRLVQPGEPLSLTCKTSGIDLSSNAIGWVRQAPGKGLEWIGVIFGSGNTYYASWAKGRFTISRSTSTVYLKMNSLRSEDTAIYYCARGGYSSDIWGQGTLVTVSSASTKGPSVFPLAPSSKSTSGGTAALGCLVKDYFPEPVTVSWNSGALTSGVHTFPAVLQSSGLYSLSSVVTVPSSSLGTQTYICNVNHKPSNTKVDKRVEPKSCDKTHTCPPCPAPEAAGGPSVFLFPPKPKDTLMISRTPEVTCVVVDVSHEDPEVKFNWYVDGVEVHNAKTKPREEQYNSTYRVVSVLTVLHQDWLNGKEYKCAVSNKALPAPIEKTISKAKGQPREPQVYTLPPSRDELTKNQVSLSCAVKGFYPSDIAVEWESNGQPENNYKTTPPVLDSDGSFFLVSKLTVDKSRWQQGNVFSCSVMHEALHNHYTQKSLSLSPG
chain 2: QVQLVQSGGGLVQAGGSLSLSCAFSGRTFSMYTMGWFRQAPGKEREFVAANRGRGLSPDIADSVNGRFTISRDNAKNTLYLQMDSLKPEDTAVYYCAADLQYGSSWPQRSSAEYDYWGQGTTVTVSSGGGGSGGGGSDPQLTQSPSSLSATVGQRVTINCQSSQSVAKNNNLAWFQQKPGKPPKLLIYSASTLAAGVPSRFSGSGSGTQFTLTITRVQSEDFATYYCSARDSGNIQSFGGGTRVEIKRTVAAPSVFIFPPSDEQLKSGTASVVCLLNNFYPREAKVQWKVDNALQSGNSQESVTEQDSKDSTYSLSSTLTLSKADYEKHKVYACEVTHQGLSSPVTKSFNRGECGGDKTHTCPPCPAPEAAGGPSVFLFPPKPKDTLMISRTPEVTCVVVDVSHEDPEVKFNWYVDGVEVHNAKTKPREEQYNSTYRVVSVLTVLHQDWLNGKEYKCAVSNKALPAPIEKTISKAKGQPREPQVYTLPPSRDELTKNQVSLWCLVKGFYPSDIAVEWESNGQPENNYKTTPPVLDSDGSFFLYSKLTVDKSRWQQGNVFSCSVMHEALHNRFTQKSLSLSPG
notes: tri-miniGNC; D1 αEGFR VHH, D2 αHER3 VHH, D3 αCD3* (Fab)
In the case of B4, the Kd in the test with human HER3 was found to be 4.58 nM; with human CD3 it was 68 nM; in the test with human EGFR, 14.8 nM.
